These results are taken from patent US20260029399A1.

Common to all, as to experiment: cell-based or functional assay
Assay [1] concerns the target T1, IL-13Rα1 receptor on Jurkat cells (UniProt P78552).
T1 sequence: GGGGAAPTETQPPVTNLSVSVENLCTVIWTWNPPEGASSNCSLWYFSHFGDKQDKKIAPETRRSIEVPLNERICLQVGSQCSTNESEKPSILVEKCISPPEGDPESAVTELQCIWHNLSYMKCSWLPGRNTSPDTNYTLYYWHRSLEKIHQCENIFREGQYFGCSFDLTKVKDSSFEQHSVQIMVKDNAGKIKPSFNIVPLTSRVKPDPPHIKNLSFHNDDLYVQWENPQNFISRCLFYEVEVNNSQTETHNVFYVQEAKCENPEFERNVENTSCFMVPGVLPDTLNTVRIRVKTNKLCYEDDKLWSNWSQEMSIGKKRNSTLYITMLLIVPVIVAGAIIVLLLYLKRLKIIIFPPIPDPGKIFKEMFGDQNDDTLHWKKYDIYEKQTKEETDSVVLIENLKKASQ

For assay [2], the target named is CMV C7 TCR on C7 TCR-expressing T cells.
Sequence of CMV C7 TCR on C7 TCR-expressing T cells (chain, as listed by the source): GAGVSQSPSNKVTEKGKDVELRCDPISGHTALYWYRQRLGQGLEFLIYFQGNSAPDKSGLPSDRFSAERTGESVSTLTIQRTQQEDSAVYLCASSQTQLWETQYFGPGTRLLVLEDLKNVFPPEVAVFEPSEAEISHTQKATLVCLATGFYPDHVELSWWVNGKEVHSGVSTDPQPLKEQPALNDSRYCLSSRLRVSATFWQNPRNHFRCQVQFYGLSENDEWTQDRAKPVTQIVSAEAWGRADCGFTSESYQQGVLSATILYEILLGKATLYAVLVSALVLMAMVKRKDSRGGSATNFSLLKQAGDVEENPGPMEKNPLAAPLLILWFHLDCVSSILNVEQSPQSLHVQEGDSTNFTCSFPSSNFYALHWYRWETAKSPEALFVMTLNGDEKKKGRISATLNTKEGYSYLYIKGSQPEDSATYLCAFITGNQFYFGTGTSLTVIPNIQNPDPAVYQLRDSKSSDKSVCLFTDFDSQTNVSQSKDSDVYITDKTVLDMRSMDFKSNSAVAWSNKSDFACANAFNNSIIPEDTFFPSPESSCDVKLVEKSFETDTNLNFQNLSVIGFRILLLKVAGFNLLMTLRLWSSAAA
Assay [3] concerns the target IG4 TCR (variant not stated) on IG4 TCR-expressing T cells.
The target of assay [4] is 868 TCR (Beta Chain-P2A-Alpha Chain) on 868 TCR-expressing T cells.
Sequence of 868 TCR (Beta Chain-P2A-Alpha Chain) on 868 TCR-expressing T cells (chain, as listed by the source): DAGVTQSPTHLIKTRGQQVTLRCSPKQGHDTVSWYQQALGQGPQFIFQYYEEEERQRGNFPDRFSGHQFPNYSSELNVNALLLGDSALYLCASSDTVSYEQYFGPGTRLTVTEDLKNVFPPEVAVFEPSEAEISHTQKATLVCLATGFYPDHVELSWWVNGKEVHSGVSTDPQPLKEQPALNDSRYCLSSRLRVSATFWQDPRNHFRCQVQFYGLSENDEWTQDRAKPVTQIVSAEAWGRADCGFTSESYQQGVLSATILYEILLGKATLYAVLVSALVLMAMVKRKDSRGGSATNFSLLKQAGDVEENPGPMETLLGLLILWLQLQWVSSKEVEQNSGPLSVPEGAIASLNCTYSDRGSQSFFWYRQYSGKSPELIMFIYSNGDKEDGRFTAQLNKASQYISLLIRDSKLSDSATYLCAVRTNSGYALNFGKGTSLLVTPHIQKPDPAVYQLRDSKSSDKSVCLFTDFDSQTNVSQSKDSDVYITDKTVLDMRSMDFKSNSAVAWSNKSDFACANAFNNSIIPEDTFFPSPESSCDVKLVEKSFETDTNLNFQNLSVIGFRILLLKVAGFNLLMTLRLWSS

Take “IL-13 - CD8α stalk linker (SEQ ID NO: 4) - PDGFR transmembrane domain, displayed on lentivirus (from UniProt P35225 35-146) (ligand)”: in assay [1], the infection of Jurkat cells bearing the IL13Rα1 receptor (GFP reporter) came out at 88.5%. On the same count and under the same terms, the value for “IL-13 - GAPGAS linker (SEQ ID NO: 5) - PDGFR transmembrane domain, displayed on lentivirus (from UniProt P35225 35-146) (ligand)” was 1%; that for “IL-13 - PDGFR linker (SEQ ID NO: 3) - PDGFR transmembrane domain, displayed on lentivirus (from UniProt P35225 35-146) (ligand)” was 6.1%.

The substance “IL-13 extracellular targeting domain: full-length IL-13 - IgG4 hinge linker - PDGFR transmembrane domain, displayed on lentivirus (from UniProt P35225 35-146) (ligand)” returned a transduction (cells expressing the GFP reporter after mixing) in assay [1] of 85.2%.

The substance “disulfide-stabilized CMV NLV pMHC displayed on lentivirus (peptide-MHC)” registered a transduction rate in assay [2] of 21.8%. Consider “disulfide-stabilized NYESO-1 pMHC displayed on lentivirus (peptide-MHC)”, for which the transduction rate in assay [3] worked out at 19%.

As for “disulfide-stabilized SL9 pMHC displayed on lentivirus (peptide-MHC)”, the transduction rate in assay [4] was determined as 22.1%.
